Reference: article PMC12505966, “Soluble MFGE8 mediates cell entry of Crimean-Congo hemorrhagic fever virus” (mBio, 2025)

Target: T1, CCHFV Gc monomer (Gc10200 aa 1,041-1,579, Strep-Tag II) (Crimean-Congo hemorrhagic fever virus, …, UniProt Q8JSZ3 1041-1579)
T1 construct: also called Gc protein; recombinant Gc monomer
T1 sequence: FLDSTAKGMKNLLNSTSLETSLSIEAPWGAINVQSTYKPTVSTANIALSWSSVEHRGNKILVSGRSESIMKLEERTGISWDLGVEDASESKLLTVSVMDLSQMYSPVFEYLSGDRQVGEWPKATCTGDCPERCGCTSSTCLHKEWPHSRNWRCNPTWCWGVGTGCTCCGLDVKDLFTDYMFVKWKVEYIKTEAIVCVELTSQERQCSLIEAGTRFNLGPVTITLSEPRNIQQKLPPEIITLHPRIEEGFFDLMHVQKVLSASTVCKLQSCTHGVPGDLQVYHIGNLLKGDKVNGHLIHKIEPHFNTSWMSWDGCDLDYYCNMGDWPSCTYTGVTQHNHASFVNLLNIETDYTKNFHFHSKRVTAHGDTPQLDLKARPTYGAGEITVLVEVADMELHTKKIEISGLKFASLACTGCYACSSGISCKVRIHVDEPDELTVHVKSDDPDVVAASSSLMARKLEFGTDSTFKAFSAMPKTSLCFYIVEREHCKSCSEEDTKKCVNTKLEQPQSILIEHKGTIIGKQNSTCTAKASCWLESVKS
Test: BLI; ForteBio Octet Red; […] (15 µg/mL) […]; PBS with 0.02% Tween 20 and 0.1% BSA; 1/1 binding model
Details: both partners purified

B1: Human recombinant MFGE8 protein with His tag at the C-terminus (natural protein, UniProt Q08431 24-387, looked up)
chain: LDICSKNPCHNGGLCEEISQEVRGDVFPSYTCTCLKGYAGNHCETKCVEPLGLENGNIANSQIAASSVRVTFLGLQHWVPELARLNRAGMVNAWTPSSNDDNPWIQVNLLRRMWVTGVVTQGASRLASHEYLKAFKVAYSLNGHEFDFIHDVNKKHKEFVGNWNKNAVHVNLFETPVEAQYVRLYPTSCHTACTLRFELLGCELNGCANPLGLKNNSIPDKQITASSSYKTWGLHLFSWNPSYARLDKQGNFNAWVAGSYGNDQWLQVDLGSSKEVTGIITQGARNFGSVQFVASYKVAYSNDSANWTEYQDPRTGSSKIFPGNWDNHSHKKNLFETPILARYVRILPVAWHNRIALRLELLGC
notes: also called milk fat globule-EGF factor 8 protein; lactadherin; not shown: His tag, C-terminal, kept
- Kd: < 1 pM
